{"source": "the supplement of paper PMC9112550", "about": "“Optimization of the antimicrobial peptide Bac7 by deep mutational scanning” (BMC Biology, 2022);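 note: peptides expressed intracellularly from a pBAD plasmid library in pooled LB shake-flask culture, induced with 0.3% L-arabinose, DNA abundance read by NGS, three biological replicates, DESeq2 with apeglm shrinkage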"}
{"tested_on": "Escherichia coli TOP10", "assay": "shrunken log2 fold change of peptide-encoding DNA abundance (4.5 h post-induction vs induction); higher = less antimicrobial activity (less host growth inhibition)", "conditions": "time post-induction: 4.5 h; library: site-saturation at positions 5, 18, 19, 20"}
{"sequence": "RRIRTRPPRLPRPRPRPFWEPRP", "shrunken log2 fold change": 1.78}
{"sequence": "RRIRTRPPRLPRPRPRPIFFPRP", "shrunken log2 fold change": 0.0107}
{"sequence": "RRIRLRPPRLPRPRPRPIFLPRP", "shrunken log2 fold change": -0.333}
{"sequence": "RRIRCRPPRLPRPRPRPTQVPRP", "shrunken log2 fold change": 0.0177}
{"sequence": "RRIRYRPPRLPRPRPRPCNPPRP", "shrunken log2 fold change": -0.217}
{"sequence": "RRIRQRPPRLPRPRPRPTHCPRP", "shrunken log2 fold change": 0.897}
{"sequence": "RRIRTRPPRLPRPRPRPYVRPRP", "shrunken log2 fold change": 0.0143}
{"sequence": "RRIRGRPPRLPRPRPRPNHHPRP", "shrunken log2 fold change": 0.491}
{"sequence": "RRIRNRPPRLPRPRPRPEIPPRP", "shrunken log2 fold change": -0.113}
{"sequence": "RRIRERPPRLPRPRPRPMSCPRP", "shrunken log2 fold change": -0.206}
{"sequence": "RRIRFRPPRLPRPRPRPVDRPRP", "shrunken log2 fold change": 0.123}
{"sequence": "RRIRERPPRLPRPRPRPHCQPRP", "shrunken log2 fold change": 0.00361}
{"sequence": "RRIRFRPPRLPRPRPRPRIHPRP", "shrunken log2 fold change": -0.262}
{"sequence": "RRIRGRPPRLPRPRPRPIRMPRP", "shrunken log2 fold change": 0.0246}
{"sequence": "RRIRTRPPRLPRPRPRPQNSPRP", "shrunken log2 fold change": -1.19}
{"sequence": "RRIRGRPPRLPRPRPRPDIVPRP", "shrunken log2 fold change": 0.192}
{"sequence": "RRIRSRPPRLPRPRPRPPSVPRP", "shrunken log2 fold change": 0.279}
{"sequence": "RRIRGRPPRLPRPRPRPTTIPRP", "shrunken log2 fold change": 0.623}
{"sequence": "RRIRHRPPRLPRPRPRPEFAPRP", "shrunken log2 fold change": 0.0409}
{"sequence": "RRIRNRPPRLPRPRPRPVLRPRP", "shrunken log2 fold change": 0.00524}
{"sequence": "RRIRLRPPRLPRPRPRPLYGPRP", "shrunken log2 fold change": -0.249}
{"sequence": "RRIRYRPPRLPRPRPRPALHPRP", "shrunken log2 fold change": 0.12}
{"sequence": "RRIRARPPRLPRPRPRPWILPRP", "shrunken log2 fold change": 0.223}
{"sequence": "RRIRYRPPRLPRPRPRPYEVPRP", "shrunken log2 fold change": -0.343}
{"sequence": "RRIRPRPPRLPRPRPRPPVWPRP", "shrunken log2 fold change": 0.27}
{"sequence": "RRIRTRPPRLPRPRPRPQINPRP", "shrunken log2 fold change": -0.348}
{"sequence": "RRIRARPPRLPRPRPRPDEDPRP", "shrunken log2 fold change": 2.09}
{"sequence": "RRIRARPPRLPRPRPRPFIQPRP", "shrunken log2 fold change": 0.0556}
{"sequence": "RRIRSRPPRLPRPRPRPTKQPRP", "shrunken log2 fold change": 0.129}
{"sequence": "RRIRDRPPRLPRPRPRPWDDPRP", "shrunken log2 fold change": -0.249}
{"sequence": "RRIRLRPPRLPRPRPRPYFPPRP", "shrunken log2 fold change": -0.802}
{"sequence": "RRIRGRPPRLPRPRPRPHTVPRP", "shrunken log2 fold change": -0.311}
{"sequence": "RRIRWRPPRLPRPRPRPAFKPRP", "shrunken log2 fold change": -0.00397}
{"sequence": "RRIRMRPPRLPRPRPRPFVIPRP", "shrunken log2 fold change": -0.197}
{"sequence": "RRIRIRPPRLPRPRPRPQVRPRP", "shrunken log2 fold change": -0.223}
{"sequence": "RRIRPRPPRLPRPRPRPKYLPRP", "shrunken log2 fold change": -0.0768}
{"sequence": "RRIRLRPPRLPRPRPRPSMKPRP", "shrunken log2 fold change": -0.252}
{"sequence": "RRIRFRPPRLPRPRPRPYMFPRP", "shrunken log2 fold change": -1.11}
{"sequence": "RRIRLRPPRLPRPRPRPTAWPRP", "shrunken log2 fold change": 0.222}
{"sequence": "RRIRIRPPRLPRPRPRPTMLPRP", "shrunken log2 fold change": -0.487}
{"sequence": "RRIRQRPPRLPRPRPRPPNRPRP", "shrunken log2 fold change": -0.131}
{"sequence": "RRIRERPPRLPRPRPRPNAVPRP", "shrunken log2 fold change": -0.407}
{"sequence": "RRIRQRPPRLPRPRPRPGSVPRP", "shrunken log2 fold change": 0.241}
{"sequence": "RRIRERPPRLPRPRPRPGAIPRP", "shrunken log2 fold change": -0.187}
{"sequence": "RRIRVRPPRLPRPRPRPIGQPRP", "shrunken log2 fold change": 0.0922}
{"sequence": "RRIRYRPPRLPRPRPRPKSAPRP", "shrunken log2 fold change": 0.0745}
{"sequence": "RRIRLRPPRLPRPRPRPQWAPRP", "shrunken log2 fold change": 0.123}
{"sequence": "RRIRNRPPRLPRPRPRPESAPRP", "shrunken log2 fold change": -0.0184}
{"sequence": "RRIRGRPPRLPRPRPRPCQWPRP", "shrunken log2 fold change": 0.0251}
{"sequence": "RRIRHRPPRLPRPRPRPPMRPRP", "shrunken log2 fold change": 0.747}
{"sequence": "RRIRLRPPRLPRPRPRPAKLPRP", "shrunken log2 fold change": -0.0675}
{"sequence": "RRIRYRPPRLPRPRPRPREHPRP", "shrunken log2 fold change": -0.00116}
{"sequence": "RRIRLRPPRLPRPRPRPNCSPRP", "shrunken log2 fold change": 0.121}
{"sequence": "RRIRIRPPRLPRPRPRPAPWPRP", "shrunken log2 fold change": 0.0917}
{"sequence": "RRIRMRPPRLPRPRPRPMKMPRP", "shrunken log2 fold change": 0.803}
{"sequence": "RRIRYRPPRLPRPRPRPEWVPRP", "shrunken log2 fold change": -0.0265}
{"sequence": "RRIRTRPPRLPRPRPRPFDSPRP", "shrunken log2 fold change": -0.258}
{"sequence": "RRIRRRPPRLPRPRPRPEIVPRP", "shrunken log2 fold change": 0.246}
{"sequence": "RRIRTRPPRLPRPRPRPKVNPRP", "shrunken log2 fold change": -0.168}
{"sequence": "RRIRFRPPRLPRPRPRPRPTPRP", "shrunken log2 fold change": 0.732}
